These results are taken from patent publication US20110081339A1 (Amgen, published 2011).

In assay [1] the target is T1, cynomolgus IL-17RA expressed on cells (cynomolgus).
T1 construct: whole, on cells; CHO cell line over-expressing cynomolgus IL-17RA (FACS); also called cyno IL-17RA; CHO-cynoIL-17RA
Put plainly: FACS; inhibition of biotin-huIL-17A binding; MFI.

Assay [2] concerns the target T1, cynomolgus IL-17RA expressed on cells. Put plainly: FACS; inhibition of biotin-huIL-17A binding; MFI. This is another data set of the same source. (In general: In flow cytometry, cells or beads pass a laser one at a time.)
Assay [3] shares this target. Put plainly: FACS; inhibition of biotin-huIL-17A binding; MFI. The source holds these as a separate data set.
From the text: The anti-IL-17RA antibodies were characterized. […] Anti-IL-17RA non-clonal hybridomas were selected for sub-cloning based on their performance in the CHO-IL-17RA FACS assay and HFF bioassay.
Assay [4] shares this target. Put plainly: cell-based or functional assay.
For assay [5], the target named is Human IL-17RA full-length expressed on the surface of cells (human, UniProt Q96F46 33-866). Put plainly: cell-based or functional assay.

Where two headings read alike, the source gives them in different places.

B1: IL-17RA mAb (AMH11/AML11) (antibody, V domains shown)
VH: QVQLVESGGGVVQPGRSLRLSCATSGITFSSYGMHWVRQAPGKGLEWVAVIWYDGSNKYYADSVKGRFTISRDNSKNTLYLQMNSLRAEDTAVYYCARDTKDYWGQGTLVTVSS
VL: EIVMTQSPATLSVSPGERATLSCRASQSVSSNLAWYQQKPGQAPRLLIYGASTRAAGIPARFSGGGSGTAFTLTISNLQSEDFAVYYCQHYINWPKWTFGQGTKVDIK
notes: also called AM-11; AML11/AMH11
In turn, B1 gave an MFI in assay [1] of 9.

B2: IL-17RA mAb (AMH21/AML21) (antibody, IgG2, V domains shown)
VH: EVQLVESGGGSVQPGGSLRLSCAASGFTFSSYSMNWVRQAPGKGLEWVSIISSRSSIIHYADSVKGRFTISRDNAKNSLYLQMNSLRDEDTAVYYCARPKVGGGMDVWGQGTTVTVSS
VL: DIQMTQSPSSLSASVGDRVTITCRASQGISNYLAWYQQKPGKFPELLIYAASTLQSGVPSRFSGSGSGTDFTLTISSLQPEDVATYYCQKYNRAPFTFGPGTKVDIK
notes: From IgG2 XenoMouse mice; also called AM-21; AML21/AMH21
B2 yielded an MFI in assay [2] of 6.

B3: IL-17RA mAb (AMH1/AML1) (antibody, V domains shown)
VH: QVQLQESGPGLVKPSETLSLTCTVSGGSISNYYWNWIRQSPGKGLEWIGDIYYSGSTNYNPSLKSRVTISVDTSKNQFSLKLSSVTTADTAVYYCARDGELANYYGSGSYQFYYYYGMDVWGQGTTVTVSS
VL: DILMTQSPSSLSASVGDRVTITCRASQGIRNDLGWYQQKPGKAPKRLIYAASSLQSGVPSRFSGSGSGTEFTLTISSLQPEDFATYYCLQHNSNPFTFGPGTKVDIK
notes: also called AM-1; AML1/AMH1
B3 returned an MFI in assay [1] of 11.

B4: IL-17RA mAb (AMH5/AML5) (antibody, V domains shown)
VH: QVQLQESGPGLVKPSETLPLTCTVSGGSIRSYYWSWIRQPAGKGLEWIGRIYRSGNTIYNPSLKSRVTMSIDTSKNQFSLTLSSVTAADTAVYYCARENYSESSGLYYYYGMDVWGQGTTVTVSS
VL: DIQMTQSPSSLSASVGDRVTITCRASQGIRNDLGWYQQKPGKAPKRLIYAASSFQSGVPSRFSGSGSGTGFTLTISSLQPEDFATYYCLQHNSYPPTFGQGTKVEIK
notes: also called AM-5; AML5/AMH5
B4 yielded an MFI in assay [1] of 9.

B5: IL-17RA mAb (AMH13/AML13) (antibody, IgG2, V domains shown)
VH: QVQLVESGGGVVQPGRSLRLSCAASGFTFSSYGMQWVRQAPGKGLEWVAVIWYDGNKKYYADSVKGRFTISRDNSKNTLYLQMNSLRAEDTAVYYCARGRVRDYYYGMDVWGQGTTVTVSS
VL: DIVMTQTPLSLSVTPGQPASIACKSSQSLLHSDGKTYLYWYLQKPGQPPQLLIYEVSTRFSGVPDRFSGSGSGTDFTLKISRVEAEDVGVFYCMQSIQLPLTFGGGTKVEIK
notes: From IgG2 XenoMouse mice; also called AM-13; AML13/AMH13
B5 returned an MFI in assay [3] of 6.

B6: IL-17RA human mAb having the heavy and light chain variable sequences (AMH14/AML14) (antibody, IgG2, V domains shown)
VH: QVQLVQSGAEVKKPGASVKVSCKASGYTFTRYGISWVRQAPGQGLEWMGWISTYSGNTNYAQKLQGRVTMTTDTSTSTAYMELRSLRSDDTAVYYCARRQLYFDYWGQGTLVTVSS
VL: EIVMTQSPATLSVSPGERATLSCRASQSVSSNLAWFQQKPGQAPRPLIYDASTRATGVPARFSGSGSGTDFTLTISSLQSEDFAVYYCQQYDNWPLTFGGGTKVEIK
notes: Fully human, from IgG2 XenoMouse mice; Only variable domains are tied to it in the description; also called AM-14; AML14/AMH14
For B6, the MFI in assay [2] amounted to 10. Also, the “IC50, cynomolgous IL-17A-induced IL-6 production from JTC-12 cells” value in assay [4] is approximately 1.2 nM.

B7: IL-17RA mAb (AMH17/AML17) (antibody, V domains shown)
VH: QVQLVQSGAEVKKPGAAVKVSCKATGYTLTSYGISWVRQAPGQGLEWMGWISAYSGNTKYAQKLQGRVTMTTDTSTSTAYMELRSLRSDDTAVYYCARKQLVFDYWGQGTLVTVSS
VL: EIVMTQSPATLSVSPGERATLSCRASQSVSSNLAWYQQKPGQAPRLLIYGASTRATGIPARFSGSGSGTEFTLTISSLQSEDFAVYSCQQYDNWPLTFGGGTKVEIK
notes: From IgG2 XenoMouse mice; also called AM-17; AML17/AMH17
Consider B7, for which the MFI in assay [3] is 8.

B8: AMH14/AML14 (hybridoma) (antibody, V domains shown)
VH: QVQLVQSGAEVKKPGASVKVSCKASGYTFTRYGISWVRQAPGQGLEWMGWISTYSGNTNYAQKLQGRVTMTTDTSTSTAYMELRSLRSDDTAVYYCARRQLYFDYWGQGTLVTVSS
VL: EIVMTQSPATLSVSPGERATLSCRASQSVSSNLAWFQQKPGQAPRPLIYDASTRATGVPARFSGSGSGTDFTLTISSLQSEDFAVYYCQQYDNWPLTFGGGTKVEIK
On to B8, for which, in assay [5], the “IC50 (read off the curve) (IL-17A-induced GRO-alpha production from HFF cells; blocked ligand m20)” value is approximately 0.01 µg/mL.

B9: IL-17RA mAb (AMH15/AML15) (antibody, V domains shown)
VH: QVQLVESGGGVVQPGRSLRLSCAASGFTFSSYGMQWVRQAPGKGLEWVAVIWYDGNKKYYADSVKGRFTISRDNSKNTLYLQMNSLRAEDTAVYYCARGRVRDYYYGMDVWGQGTTVTVSS
VL: EIVMTQSPATLSVSPGERVTLSCRASQSVSSNLAWFQQKPGQAPRPLIYDASTRAAGIPARFSGSGSGTDFTLTISSLQSEDFAVYYCQQYDNWPLTFGGGTKVEIK
notes: also called AM-15; AML15/AMH15
For the molecule B9, in assay [2], the MFI was 6.

B10: IL-17RA mAb (AMH12/AML12) (antibody, IgG2, V domains shown)
VH: QVQLVQSGAEVKKPGASVKVSCKASGYTLTSYGISWVRQAPGQGLEWMGWISTYKGNTNYAQKLQGRVTMTTDTSTSTAYMELRSLRSDDTAVYYCARKQLVFDYWGQGTLVTVSS
VL: EIVMTQSPATLSVSPGERATLSCRASQSISSSLAWYQQKPGQAPRLLIYGASTRATGIPARFSGSGSGTEFTLTISSLQSENFAVYYCQQYDNWPLTFGGGTKVEIK
notes: From IgG2 XenoMouse mice; also called AM-12; AML12/AMH12
B10 came in with an MFI in assay [3] of 6.

B11: IL-17RA mAb (AMH16/AML16) (antibody, IgG2, V domains shown)
VH: QVQLVQSGAEVKKPGASVKVSCKASGYTFTSYGISWVRQAPGQGLEWMGWISAYNGNTKYAQKLQGRVTMTTDTSTSTVYMELRSLRSDDTAVYYCARKQLVFDYWGQGTLVTVSS
VL: EIVMTQSPATLSVSPGERATLSCRASQSISTSLAWYQQKPGQAPRLLIYGTSTRATGIPARFSGSGSGTEFTLTISSLQSEDFAVYFCQQYDIWPLTFGGGTKVEIK
notes: From IgG2 XenoMouse mice; also called AM-16; AML16/AMH16
B11 had an MFI in assay [3] of 6.

B12: IL-17RA human mAb (AMH22/AML22) (antibody, IgG2, V domains shown)
VH: QVQLVQSGAEVKKPGASVKVSCKASGYTFTRYGISWVRQAPGQGLEWMGWISAYSGNTNYAQKLQGRVTMTTDTSTSTAYMELRSLRSDDTAVYYCARRQLYFDYWGQGTLVTVSS
VL: EIVMTQSPATLSVSPGERVTLSCRASQSVSSNLAWFQQKPGQAPRPLIYDASTRAAGIPARFSGSGSGTDFTLTISSLQSEDFAVYYCQQYDNWPLTFGGGTKVEIK
notes: Fully human, from IgG2 XenoMouse mice; also called AM-22; AML22/AMH22
Take B12: the MFI in assay [1] was found to be 18.
